# Source: PMC3526297
# Target: GST-Rev3 (S. cerevisiae) (UniProt P14284)
# Assay: affinity co-purification of the polymerase from yeast
# UniProt P14284, sequence (P14284 whole entry): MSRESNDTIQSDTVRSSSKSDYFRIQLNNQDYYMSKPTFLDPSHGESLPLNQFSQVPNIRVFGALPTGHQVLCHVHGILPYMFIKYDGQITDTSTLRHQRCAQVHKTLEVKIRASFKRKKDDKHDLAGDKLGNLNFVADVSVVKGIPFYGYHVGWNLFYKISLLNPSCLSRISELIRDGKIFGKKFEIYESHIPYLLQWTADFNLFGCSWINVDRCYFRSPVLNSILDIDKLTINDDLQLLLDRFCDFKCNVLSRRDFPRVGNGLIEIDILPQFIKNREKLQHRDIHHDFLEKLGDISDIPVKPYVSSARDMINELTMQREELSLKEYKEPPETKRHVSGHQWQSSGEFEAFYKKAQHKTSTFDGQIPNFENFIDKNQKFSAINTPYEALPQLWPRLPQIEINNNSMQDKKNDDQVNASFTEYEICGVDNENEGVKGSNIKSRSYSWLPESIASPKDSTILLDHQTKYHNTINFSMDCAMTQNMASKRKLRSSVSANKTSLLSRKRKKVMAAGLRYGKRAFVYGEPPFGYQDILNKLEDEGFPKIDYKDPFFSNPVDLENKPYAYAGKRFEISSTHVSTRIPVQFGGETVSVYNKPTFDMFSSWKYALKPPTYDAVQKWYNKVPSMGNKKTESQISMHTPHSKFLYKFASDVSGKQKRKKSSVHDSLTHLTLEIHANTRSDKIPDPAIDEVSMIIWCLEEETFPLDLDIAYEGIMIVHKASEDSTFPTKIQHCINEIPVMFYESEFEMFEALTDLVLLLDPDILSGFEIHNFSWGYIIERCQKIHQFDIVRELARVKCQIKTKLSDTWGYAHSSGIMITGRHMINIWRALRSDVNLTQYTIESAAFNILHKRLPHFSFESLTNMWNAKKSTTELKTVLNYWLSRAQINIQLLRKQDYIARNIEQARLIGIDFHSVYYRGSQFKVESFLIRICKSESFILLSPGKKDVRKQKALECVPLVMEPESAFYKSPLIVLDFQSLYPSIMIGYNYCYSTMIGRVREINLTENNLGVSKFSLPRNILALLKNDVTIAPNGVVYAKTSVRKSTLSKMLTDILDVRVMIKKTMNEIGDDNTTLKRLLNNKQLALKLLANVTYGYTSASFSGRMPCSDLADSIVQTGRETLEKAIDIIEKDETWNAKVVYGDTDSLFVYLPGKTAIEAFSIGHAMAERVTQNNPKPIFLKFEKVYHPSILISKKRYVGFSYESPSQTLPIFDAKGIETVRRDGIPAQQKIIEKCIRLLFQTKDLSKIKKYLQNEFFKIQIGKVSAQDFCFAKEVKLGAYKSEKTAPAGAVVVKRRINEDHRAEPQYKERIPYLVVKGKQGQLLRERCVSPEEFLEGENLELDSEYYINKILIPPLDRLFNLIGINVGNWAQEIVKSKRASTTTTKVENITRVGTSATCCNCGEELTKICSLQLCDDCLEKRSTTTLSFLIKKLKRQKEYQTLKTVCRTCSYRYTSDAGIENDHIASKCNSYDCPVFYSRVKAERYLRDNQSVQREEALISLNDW
substance,measurement,value
Pol32 with an N-terminal His7 tag (from UniProt P47110 1-350) (natural protein),stoichiometry of the complex after Ni-chelate chromatography (percent),100%
